Experimental data: article PMC10350915, “Development of a New Class of CXCR4-Targeting Radioligands Based on the Endogenous Antagonist EPI-X4 for Oncological Applications” (Journal of Medicinal Chemistry, 2023)
Where two headings read alike, the source gives them in different places. Square brackets hold non-standard residues; d marks the D form. Side chains are listed from the residue outwards. Ends that are not written are not given here. Peptide text beside a SMILES is read from it. * marks the point of attachment. DOTA = O=C(O)CN1CCN(CC(=O)O)CCN(CC(=O)*)CCN(CC(=O)O)CC1; Palmitoyl = CCCCCCCCCCCCCCCC(=O)*

Columns and labels:
[1] = type: in vitro ADME; conditions: human; for fraction unbound at 60 min: plasma, plasma protein binding (PPB); for plasma protein binding (PPB): 60 min
Experimental: (§1) Figure 3 Stability of the ^177Lu ligands in human plasma at 37 °C, expressed as % of intact radioligand over time, assessed by radio-HPLC. The % of plasma protein binding (PPB) after 60 min incubation is provided in parenthesis and it is expressed as the % of radioligand in the protein fraction (pellet) versus the total activity in the plasma. TEXT PRINTED IN THE PICTURE: ^177Lu-1: PPB: 35% | ^177Lu-2: PPB: 22% | ^177Lu-5: PPB: 42% | ^177Lu-6: PPB: 38% | ^177Lu-7: PPB: 39% | ^177Lu-9: PPB: 37%
For the determination of plasma protein binding (PPB), 100 μL from the plasma incubated with the ^177Lu ligand was removed and measured in a γ-counter (total radioactivity). Protein precipitation and separation followed, as described above. The supernatant and the protein pellet were then measured in a γ-counter. The percentage of plasma protein binding was calculated as the ratio between the protein-bound radioactivity and the total radioactivity in the plasma.

[2] = type: in vitro ADME, human
Experimental: Representative radiochromatograms are provided in Figure S25 for ^177Lu-1, ^177Lu-2, and ^177Lu-7. This included ^177Lu-9 despite its fatty acid chain.
as §1
To 1 mL of fresh human plasma, previously equilibrated at 37 °C, 500 pmol (8–10 MBq) of each ^177Lu-labeled ligand was added. The mixture was incubated at 37 °C for different time points (0, 15, 30, 60, and 120 min). At each time point, a 100 μL aliquot was removed and treated with 1.5 excess (v/v) of acetonitrile, to precipitate plasma proteins, followed by centrifugation for 5 min at 3500 rpm. The supernatant was collected and the process of protein precipitation was repeated. Afterward, 100 μL from the supernatant was taken, diluted with water at a ratio of 1:10 (v/v), and injected into radio-HPLC. The radioligand (in)stability was assessed by quantifying the percentage of intact radioligand over time.

[3] = molecular target: T1, C-X-C motif chemokine receptor 4 (CXCR4) on Jurkat cells (human (endogenous in Jurkat), UniProt P61073 1-352); test: flow cytometry on cells; competition with APC-labelled anti-CXCR4 antibody clone 12G5 at a fixed concentration close to its KD; Jurkat cells, 50,000 cells/well; ligands serially diluted in PBS; 4 °C, 2 h; PBS with 1% FBS; conditions: one partner purified
T1 construct: CXCR4 naturally expressed at high levels on Jurkat cells (human T lymphoblasts); source: endogenous, on Jurkat cells (clone E6-1, ATCC)

[4] = molecular target: T2, C-X-C motif chemokine receptor 4 (CXCR4) on Ghost-CXCR4 cells (UniProt P61073 1-352); test: flow cytometry on cells; competition with APC-labelled anti-CXCR4 antibody clone 12G5 at a fixed concentration close to its KD; Ghost-CXCR4 cells, 50,000 cells/well; ligands serially diluted in PBS; 4 °C, 2 h; PBS with 1% FBS; conditions: one partner purified
T2 construct: CXCR4 stably expressed in Ghost cells (NIH HIV Reagent Program); source: Ghost cells (human osteosarcoma cell line) stably transfected with CXCR4, also expressing CD4; on cells

[5] = molecular target: T2, C-X-C motif chemokine receptor 4 …; test: radioligand binding; cellular uptake (surface-bound and internalised) of 177Lu ligands (1 nM) in Ghost-CXCR4 cells, 37 °C, 15-60 min, DMEM with 5% BSA; nonspecific uptake with 100,000-fold excess of AMD3100 subtracted; conditions: one partner purified
[6] = molecular target: T3, C-X-C motif chemokine receptor 4 (CXCR4) on Jurkat cells (human (endogenous in Jurkat), UniProt P61073 1-352)
T3 chain: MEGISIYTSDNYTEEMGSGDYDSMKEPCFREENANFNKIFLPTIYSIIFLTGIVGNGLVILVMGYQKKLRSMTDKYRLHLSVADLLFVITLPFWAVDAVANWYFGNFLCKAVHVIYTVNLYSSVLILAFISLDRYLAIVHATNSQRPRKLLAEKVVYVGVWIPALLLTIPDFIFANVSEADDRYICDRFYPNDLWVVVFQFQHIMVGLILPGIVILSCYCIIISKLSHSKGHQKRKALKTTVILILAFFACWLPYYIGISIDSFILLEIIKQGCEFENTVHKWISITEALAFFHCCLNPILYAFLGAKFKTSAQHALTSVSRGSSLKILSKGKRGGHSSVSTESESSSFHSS

CC[C@H](C)[C@H](N)C(=O)N[C@@H](CC(C)C)C(=O)N[C@@H](CCCNC(=N)N)C(=O)N[C@@H](Cc1c[nH]c2ccccc12)C(=O)N[C@@H](CO)C(=O)N[C@@H](CCCNC(=N)N)C(=O)N[C@@H](CCCCN)C(=O)N[C@@H](CC(C)C)C(=O)N1CCC[C@H]1C(=O)N[C@@H](CS)C(=O)N[C@H](C(=O)N[C@@H](CO)C(=O)N[C@@H](CCCCNC(=O)CN1CCN(CC(=O)O)CCN(CC(=O)O)CCN(CC(=O)O)CC1)C(=O)O)C(C)C [^177Lu-1, metal not drawn]
fraction unbound at 60 min [1]: 0.65
time to complete degradation in human plasma [2]: ≤ 15 min

CC[C@H](C)[C@H](N)C(=O)N[C@@H](CC(C)C)C(=O)N[C@@H](CCCNC(=N)N)C(=O)N[C@@H](Cc1c[nH]c2ccccc12)C(=O)N[C@@H](CO)C(=O)N[C@@H](CCCNC(=N)N)C(=O)N[C@@H](CCCCNC(=O)CN1CCN(CC(=O)O)CCN(CC(=O)O)CCN(CC(=O)O)CC1)C(N)=O [^177Lu-5, metal not drawn] (H-ILRWSRK(DOTA)-NH2; N-terminus assumed)
plasma protein binding (PPB) [1]: ~40%
fraction unbound at 60 min [1]: 0.58
time to complete degradation in human plasma [2]: ≤ 15 min

CC(C)C[C@@H](N)C(=O)N[C@@H](CC(C)C)C(=O)N[C@@H](CCCNC(=N)N)C(=O)N[C@@H](Cc1c[nH]c2ccccc12)C(=O)N[C@@H](CO)C(=O)N[C@@H](CCCNC(=N)N)C(=O)N[C@@H](CCCCN)C(=O)N[C@@H](CC(C)C)C(=O)N1CCC[C@H]1C(=O)N[C@@H](CS)C(=O)N[C@H](C(=O)N[C@@H](CO)C(=O)N[C@@H](CCCCNC(=O)CN1CCN(CC(=O)O)CCN(CC(=O)O)CCN(CC(=O)O)CC1)C(=O)O)C(C)C [^177Lu-6, metal not drawn]
plasma protein binding (PPB) [1]: ~40%
fraction unbound at 60 min [1]: 0.62
time to complete degradation in human plasma [2]: ≤ 15 min

B1: EPI-X4 JM#21 (peptide)
peptide: ILRWSRKLPCVS
notes: activity-optimised, truncated 12-mer derivative of EPI-X4 (rational design); source: synthetic peptide
IC50 [3]: 136 nM
IC50 [4]: 183 nM

B2: ^natLu-5 (peptide)
peptide: ILRWSRK(DOTA)-NH2
modifications: also: natLu complexed by DOTA
notes: natLu and 177Lu complexes are written as one molecule; they differ only in the isotope; also called ^177Lu-5; Lu complex of ligand-5; source: synthetic peptide, complexed with natLuCl3; ^177Lu form labelled with 177LuCl3
cellular uptake (% of applied activity) [5]: ~1 % of applied activity
IC50 [3]: 113 nM
IC50 [4]: 197 nM
IC50 [6]: 104 nM

B3: ligand-4 (peptide)
peptide: ILRWSRKK(DOTA)-NH2
notes: truncated JM#21 derivative with added C-terminal K(DOTA)-NH2; source: synthetic peptide (Fmoc solid phase synthesis, RP-HPLC purified)
IC50 [3]: 161 nM
IC50 [4]: 295 nM

B4: ligand-9 (peptide)
peptide: [dL]LRWSRK([Glu-Palmitoyl])K(DOTA)-NH2
notes: main chain of 8 residues; source: synthetic peptide (Fmoc solid phase synthesis, RP-HPLC purified)
IC50 [3]: 13 nM
IC50 [4]: 6 nM

B5: ^natLu-9 (peptide)
peptide: [dL]LRWSRK([Glu-Palmitoyl])K(DOTA)-NH2
modifications: also: natLu complexed by DOTA
notes: natLu and 177Lu complexes are written as one molecule; they differ only in the isotope; also called ^177Lu-9; Lu complex of ligand-9; source: synthetic peptide, complexed with natLuCl3; ^177Lu form labelled with 177LuCl3
IC50 [3]: 4 nM
IC50 [4]: 6 nM
IC50 [6]: 20 nM

B6: ligand-3 (peptide)
peptide: ILRWSRKLPK(DOTA)-NH2
modifications: N-terminus assumed
SMILES: CC[C@H](C)[C@H](N)C(=O)N[C@@H](CC(C)C)C(=O)N[C@@H](CCCNC(=N)N)C(=O)N[C@@H](Cc1c[nH]c2ccccc12)C(=O)N[C@@H](CO)C(=O)N[C@@H](CCCNC(=N)N)C(=O)N[C@@H](CCCCN)C(=O)N[C@@H](CC(C)C)C(=O)N1CCC[C@H]1C(=O)N[C@@H](CCCCNC(=O)CN1CCN(CC(=O)O)CCN(CC(=O)O)CCN(CC(=O)O)CC1)C(N)=O
notes: as for B3
IC50 [3]: 45 nM
IC50 [4]: 98 nM

B7: ^natLu-7 (peptide)
peptide: [dI]LRWSRKK(DOTA)-NH2
modifications: also: natLu complexed by DOTA
notes: natLu and 177Lu complexes are written as one molecule; they differ only in the isotope; also called ^177Lu-7; Lu complex of ligand-7; source: synthetic peptide, complexed with natLuCl3; ^177Lu form labelled with 177LuCl3
IC50 [3]: 435 nM
IC50 [4]: 481 nM
IC50 [6]: 272 nM

B8: ligand-5 (peptide)
peptide: ILRWSRK(DOTA)-NH2
modifications: N-terminus assumed
SMILES: CC[C@H](C)[C@H](N)C(=O)N[C@@H](CC(C)C)C(=O)N[C@@H](CCCNC(=N)N)C(=O)N[C@@H](Cc1c[nH]c2ccccc12)C(=O)N[C@@H](CO)C(=O)N[C@@H](CCCNC(=N)N)C(=O)N[C@@H](CCCCNC(=O)CN1CCN(CC(=O)O)CCN(CC(=O)O)CCN(CC(=O)O)CC1)C(N)=O
notes: shortest truncated JM#21 derivative; DOTA on its own K7; source: synthetic peptide (Fmoc solid phase synthesis, RP-HPLC purified)
IC50 [3]: 120 nM
IC50 [4]: 424 nM

B9: ^natLu-1 (peptide)
peptide: ILRWSRKLPCVSK(DOTA)
modifications: also: natLu complexed by DOTA
notes: natLu and 177Lu complexes are written as one molecule; they differ only in the isotope; also called ^177Lu-1; Lu complex of ligand-1 (monomer); source: synthetic peptide, complexed with natLuCl3, monomer isolated by semipreparative RP-HPLC; ^177Lu form labelled with 177LuCl3 in the presence of DTT
cellular uptake (% of applied activity) [5]: ~1 % of applied activity
IC50 [3]: 208 nM
IC50 [4]: 278 nM
IC50 [6]: 15 nM

B10: ligand-1 (peptide)
peptide: ILRWSRKLPCVSK(DOTA)
notes: source: synthetic peptide (Fmoc solid phase synthesis, RP-HPLC purified)
IC50 [3]: 303 nM
IC50 [4]: 254 nM

B11: ligand-2 (peptide)
peptide: ILRWSRKLPSVSK(DOTA)
notes: as ligand-1 with serine instead of cysteine at position 10; source: synthetic peptide (Fmoc solid phase synthesis, RP-HPLC purified)
IC50 [3]: 172 nM
IC50 [4]: 258 nM

B12: ^natLu-2 (peptide)
peptide: ILRWSRKLPSVSK(DOTA)
modifications: also: natLu complexed by DOTA
notes: natLu and 177Lu complexes are written as one molecule; they differ only in the isotope; also called ^177Lu-2; Lu complex of ligand-2; source: synthetic peptide, complexed with natLuCl3; ^177Lu form labelled with 177LuCl3
cellular uptake (% of applied activity) [5]: ~1 % of applied activity
IC50 [3]: 49 nM
IC50 [6]: 65 nM

B13: ligand-6 (peptide)
peptide: [dL]LRWSRKLPCVSK(DOTA)
notes: as ligand-1 with isoleucine 1 substituted by D-leucine; source: synthetic peptide (Fmoc solid phase synthesis, RP-HPLC purified)
IC50 [3]: 428 nM
IC50 [4]: 747 nM

B14: ^natLu-6 (peptide)
peptide: [dL]LRWSRKLPCVSK(DOTA)
modifications: also: DOTA complexed with natLu
notes: natLu and 177Lu complexes are written as one molecule; they differ only in the isotope; also called ^177Lu-6; Lu complex of ligand-6 (monomer); source: synthetic peptide, complexed with natLuCl3, monomer isolated by semipreparative RP-HPLC; ^177Lu form labelled with 177LuCl3 in the presence of DTT
cellular uptake (% of applied activity) [5]: ~1 % of applied activity
IC50 [3]: 465 nM
IC50 [4]: 1010 nM

B15: ligand-7 (peptide)
peptide: [dI]LRWSRKK(DOTA)-NH2
modifications: N-terminus assumed
SMILES: CC[C@@H](C)[C@@H](N)C(=O)N[C@@H](CC(C)C)C(=O)N[C@@H](CCCNC(=N)N)C(=O)N[C@@H](Cc1c[nH]c2ccccc12)C(=O)N[C@@H](CO)C(=O)N[C@@H](CCCNC(=N)N)C(=O)N[C@@H](CCCCN)C(=O)N[C@@H](CCCCNC(=O)CN1CCN(CC(=O)O)CCN(CC(=O)O)CCN(CC(=O)O)CC1)C(N)=O
notes: as ligand-4 with isoleucine 1 substituted by D-isoleucine; also called DOTA conjugate of JM#173; source: synthetic peptide (Fmoc solid phase synthesis, RP-HPLC purified)
IC50 [3]: 433 nM
IC50 [4]: 570 nM

IVRWSKK(Palmitoyl)VPCSK(DOTA) (also: natLu complexed by DOTA) [^natLu-8]
IC50 [3]: 18 nM
IC50 [4]: 30 nM

B16: EPI-X4 (endogenous peptide inhibitor of CXCR4) (peptide)
peptide: LVRYTKKVPQVSTPTL
notes: 16-mer fragment of human serum albumin; also called wild-type EPI-X4; source: synthetic peptide
IC50 [3]: 1780 nM
IC50 [4]: 4540 nM
